From patent publication US20260102475A1

B1: N240 (IdeS/IdeZ hybrid IgG cysteine protease) (protein)
chain: DDYQRNATEAYAKEVPHQITSVWTKGVTPPEQFTQGEDVIHAPYLAHQGWYDITKAFNGKDDLLCGAATAGNMLHWWFDQNKTEIEAYLSKHPEKQKIIFRNQELFDLKAAIDTKDSQTNSQLFNYFRDKAFPNLSARQLGVMPDLVLDMFINGYYLNVFKTQSTDVNRPYQDKDKRGGIFDAVFTRGNQTTLLTARHDLKNKGLNDISTIIKQELTEGRALALSHTYANVSISHVINLWGADFNAEGNLEAIYVTDSDANASIGMKKYFVGINAHGHVAISAKKIEGENIGAQVLGLFTLSSGKDIWQKLS
B2: imlifidase (IdeS, Immunoglobulin G-degrading enzyme of S. pyogenes) (protein)
chain: DSFSANQEIRYSEVTPYHVTSVWTKGVTPPANFTQGEDVFHAPYVANQGWYDITKTFNGKDDLLCGAATAGNMLHWWFDQNKDQIKRYLEEHPEKQKINFNGEQMFDVKEAIDTKNHQLDSKLFEYFKEKAFPYLSTKHLGVFPDHVIDMFINGYRLSLTNHGPTPVKEGSKDPRGGIFDAVFTRGDQSKLLTSRHDFKEKNLKEISDLIKKELTEGKALGLSHTYANVRINHVINLWGADFDSNGNLKAIYVTDSDSNASIGMKKYFVGVNSAGKVAISAKEIKEDNIGAQVLGLFTLSTGQDSWNQTN

Tests used:
[1] = molecular target: IgG in human serum (serum pool n=100; pre-dose patient serum)
[2] = molecular target: polyclonal IgG (substrate spiked into post-dose sera)

Row | Protein | cleavage of IgG in pre-dose patient serum, SDS-PAGE and SAB-HLA [1] | cleavage of IgG in serum, SDS-PAGE [1] | degradation of substrate spiked into sera collected after imlifidase dosing [2]
1 | B1 | N240 showed similar cleavage properties to imlifidase | – | –
2 | B2 | – | a concentration of around 2 µg/mL imlifidase was needed to start the cleavage in serum and concentrations below this did not result in any cleavage despite prolonged incubation | When polyclonal IgG was used as substrate, no degradation was seen in samples collected from 48 hours after dosing and forward
